According to the Human Domainome abundance scans (Beltran et al. 2025):
± gives the uncertainty stated by the source.

B1: Gamma-crystallin D, residues 90 to 170; numbered along this chain, P07320 (parent)
chain: IRLYEREDYRGQMIEFTEDCSCLQDRFRFNEIHSLNVLEGSWVLYELSNYRGRQYLLMPGDYRRYQDWGATNARVGSLRRV

Variants of: B1
Assay: abundance fitness (aPCA) (normalised: wild type 0, dead -1); higher = more abundant; growth selection in yeast, the domain comes from the species named
Settings: Homo sapiens

Abundance fitness, by site and new letter:
R26: N 0.039 ± 0.23 | P 0.071 ± 0.077 | F -0.292 ± 0.16 | S 0.05 ± 0.09 | C 0.091 ± 0.12 | W 0.061 ± 0.089 | M -0.007 ± 0.11 | D -0.053 ± 0.12 | Q 0.032 ± 0.16 | Y 0.095 ± 0.22 | H 0.008 ± 0.21 | G -0.018 ± 0.059 | V -0.006 ± 0.054 | E 0.047 ± 0.082 | A -0.027 ± 0.092 | T -0.048 ± 0.11
C20: S -0.011 ± 0.088 | H -0.104 ± 0.19 | N 0.042 ± 0.15 | T 0.015 ± 0.1 | K -0.096 ± 0.24 | L -0.01 ± 0.1 | P -0.486 ± 0.13 | M -0.04 ± 0.13 | Y 0.3 ± 0.26 | R 0.069 ± 0.052 | E 0.135 ± 0.095 | V -0.061 ± 0.077 | W 0.056 ± 0.094 | I -0.047 ± 0.27 | G 0.052 ± 0.05
L23: G -0.24 ± 0.062 | P -0.029 ± 0.079 | T 0.004 ± 0.088 | A 0.086 ± 0.074 | V -0.043 ± 0.082 | S 0.14 ± 0.067 | N -0.055 ± 0.18 | Q -0.217 ± 0.11 | K -0.033 ± 0.23 | C -0.023 ± 0.13 | R -0.332 ± 0.061 | I -0.098 ± 0.15 | F -0.027 ± 0.15 | H -0.833 ± 0.49 | W -0.215 ± 0.098
C22: G 0.019 ± 0.053 | P -0.104 ± 0.11 | E 0.056 ± 0.079 | D 0.089 ± 0.32 | Y -0.009 ± 0.15 | Q -0.023 ± 0.12 | V -0.08 ± 0.081 | N -0.149 ± 0.17 | L -0.049 ± 0.096 | A 0.002 ± 0.1 | M 0.091 ± 0.18 | F 0.113 ± 0.23 | R -0.044 ± 0.071 | K -0.134 ± 0.13 | H -0.07 ± 0.24 | S 0.015 ± 0.069 | W -0.107 ± 0.086
V37: E -1.11 ± 0.46 | C -0.126 ± 0.2 | G -0.218 ± 0.076 | H -0.086 ± 0.3 | L 0.096 ± 0.088 | I 0.091 ± 0.19 | S 0.137 ± 0.079 | F 0.159 ± 0.2 | W -0.895 ± 0.15 | K -0.7 ± 0.39 | A 0.01 ± 0.076 | Q -0.306 ± 0.15 | M -0.338 ± 0.16 | D 0.165 ± 0.34 | T 0.091 ± 0.1 | P 0.153 ± 0.099
F27: N -0.086 ± 0.5 | I -0.035 ± 0.19 | E 0.065 ± 0.064 | L -0.105 ± 0.074 | C -0.031 ± 0.12 | Y -0.048 ± 0.12 | M -0.129 ± 0.21 | R -0.126 ± 0.058 | S 0.011 ± 0.089 | H -0.343 ± 0.13 | A -0.056 ± 0.11 | G -0.106 ± 0.06 | T -0.09 ± 0.15 | W -0.103 ± 0.095 | D 0.012 ± 0.16 | P 0.103 ± 0.088 | V -0.092 ± 0.077 | K -0.009 ± 0.15
I32: K -0.235 ± 0.16 | V 0.127 ± 0.12 | G 0.063 ± 0.062 | F -0.001 ± 0.13 | C 0.032 ± 0.12 | N -0.101 ± 0.22 | Q -0.251 ± 0.19 | S -0.007 ± 0.08 | M 0.02 ± 0.28 | Y 0.325 ± 0.48 | E -0.201 ± 0.32 | R -0.062 ± 0.085 | W 0.067 ± 0.15 | L 0.119 ± 0.093 | D -0.346 ± 0.39 | P -0.003 ± 0.12 | A -0.11 ± 0.08 | T -0.037 ± 0.1
D25: G 0.041 ± 0.079 | E 0.088 ± 0.13 | N -0.197 ± 0.24 | T -0.168 ± 0.31 | W -0.087 ± 0.1 | P 0.073 ± 0.15 | L 0.06 ± 0.095 | F -0.036 ± 0.14 | K 0.103 ± 0.33 | I -0.052 ± 0.19 | R -0.045 ± 0.093 | C -0.308 ± 0.16 | M -0.149 ± 0.2 | Y -0.17 ± 0.12 | S -0.127 ± 0.092 | A 0.005 ± 0.13 | V -0.051 ± 0.074
S34: V -1.08 ± 0.16 | E -0.853 ± 0.19 | H -0.771 ± 0.23 | I -0.84 ± 0.26 | T -0.924 ± 0.15 | W -0.828 ± 0.21 | M -0.689 ± 0.092 | D -0.936 ± 0.28 | G -0.099 ± 0.045 | A 0.112 ± 0.077 | P -1.03 ± 0.11 | Y -0.893 ± 0.19 | C -0.014 ± 0.091 | R -0.766 ± 0.11
G40: C -0.039 ± 0.17 | A -0.014 ± 0.08 | D 0.011 ± 0.11 | E 0.076 ± 0.15 | F -0.031 ± 0.17 | H 0.132 ± 0.32
H33: M 0.05 ± 0.12 | L -0.024 ± 0.07 | T -0.065 ± 0.11 | E 0.078 ± 0.13 | F -0.023 ± 0.29 | A 0.039 ± 0.073 | N -0.082 ± 0.16 | G 0.079 ± 0.076 | W 0.02 ± 0.12 | S 0.118 ± 0.1 | Q 0.04 ± 0.15 | K -0.057 ± 0.15 | C -0.01 ± 0.13 | V 0.04 ± 0.059 | D 0.011 ± 0.11
